The record followed here is paper PMC6189696, “Choline sulfatase from Ensifer (Sinorhizobium) meliloti: Characterization of the unmodified enzyme” (Biochemistry and Biophysics Reports, 2015).

Broadly, the Ki is the equilibrium dissociation constant of an inhibitor or competing ligand from its target. Low readings indicate tighter binding, high ones weaker binding. Broadly, the Km is the substrate concentration at which the rate is half of its maximum. The kcat is the number of substrate molecules converted per active site and unit of time at saturation. A word on the kcat/Km: it is the turnover number divided by the Michaelis constant. In general, stoichiometry N refers to the number of molecules, sites or subunits per partner or assembly.

For series [1], the target named is T1, choline-O-sulfatase (COS) (Sinorhizobium meliloti, UniProt O69787).
T1 construct: gene betC; full length, C-terminal His6 tag kept, pET26b+, codon-optimized gene, E. coli BL21(DE3); 59 kDa, homodimer (123 kDa); active-site Cys54 unmodified (no formylglycine)
The series can be described thus: isothermal titration calorimetry, multiple injections. In kind it is biochemical. The conditions noted are these: substrate inhibition constant, second site; 200 mM Tris-HCl pH 7.5, 500 mM NaCl, 25 °C; enzyme without FGly. From the text:
(§1) isothermal titration calorimetry, multiple injections on choline-O-sulfatase (COS)
Background: ITC needs no label: the signal is the heat of the interaction.

In series [2] the target is T1, choline-O-sulfatase (COS). The series can be described thus: spectrophotometric pNPS hydrolysis, […] nm. The format is biochemical.
Substrate in series [3]: C[N+](C)(C)CCOS(=O)(=O)[O-]
The series can be described thus: isothermal titration calorimetry, multiple injections. In kind it is biochemical, Sinorhizobium meliloti. The conditions noted are these: 200 mM Tris-HCl pH 7.5, 500 mM NaCl, 25 °C, fit with substrate inhibition, enzyme without FGly.
Text: as §1

Series [4] concerns the molecule itself. Description: SEC; analytical gel filtration on Superdex 200 10/300 GL, non-denaturing conditions, calibrated with Bio-Rad Gel Filtration Standard (1.35-670 kDa).
Substrate in series [5]: Cc1cc(=O)oc2cc(OS(=O)(=O)O)ccc12
The series can be described thus: purified protein. The format is biochemical, Sinorhizobium meliloti. The conditions noted are these: 200 mM Tris-HCl pH 7.5, 500 mM NaCl, 25 °C, 1-20 mM substrate, no saturation reached, enzyme without FGly.

Substrate in series [6]: O=[N+]([O-])c1ccc(OS(=O)(=O)O)cc1
Description: purified protein. In kind it is biochemical, Sinorhizobium meliloti. The conditions noted are these: 200 mM Tris-HCl pH 7.5, 500 mM NaCl, 25 °C, 1-80 mM substrate, no saturation reached, enzyme without FGly.

With `C[N+](C)(C)CCOS(=O)(=O)[O-]` [choline-O-sulfate], the “Ki (mM) ^a” value in series [1] stood at 11.4 ± 1.1 mM.

In series [2], `C[N+](C)(C)CCO` [choline] had a Ki of 57.8 mM.

B1: Ensifer (Sinorhizobium) meliloti choline-O-sulfatase (enzyme, UniProt O69787 1-512, looked up)
chain: MTTGKPNILIIMVDQLNGKLFPDGPADFLHAPNLKALAKRSARFHNNYTSSPLCAPARASFMAGQLPSRTRVYDNAAEYQSSIPTYAHHLRRAGYYTALSGKMHFVGPDQLHGFEERLTTDIYPADFGWTPDYRKPGERIDWWYHNLGSVTGAGVAEITNQMEYDDEVAFLANQKLYQLSRENDDESRRPWCLTVSFTHPHDPYVARRKFWDLYEDCEHLTPEVGAIPLDEQDPHSQRIMLSCDYQNFDVTEENVRRSRRAYFANISYLDEKVGELIDTLTRTRMLDDTLILFCSDHGDMLGERGLWFKMNFFEGSARVPLMIAGPGIAPGLHLTPTSNLDVTPTLADLAGISLEEVRPWTDGVSLVPMVNGVERTEPVLMEYAAEASYAPLVAIREGKWKYVYCALDPEQLFDLEADPLELTNLAENPRGPVDQATLTAFRDMRAAHWDMEAFDAAVRESQARRWVVYEALRNGAYYPWDHQPLQKASERYMRNHMNLDTLEESKRYPRGE
notes: choline-O-sulfatase (betC gene product) of Ensifer (Sinorhizobium) meliloti, GenBank AAC13371.1; gene codon optimized for E. coli and subcloned in pET26b+; expected 59 kDa with the His6-tag; Active-site Cys54 is unmodified (no formylglycine) as expressed in E. coli; two of the six cysteines form a disulfide bridge; also called COS; choline sulfatase; source: E. coli BL21 (DE3), purified (His-Trap …)
For B1, in series [3], the Km came out at 11.1 ± 1.0 mM, the kcat is 0.27 ± 0.02 s⁻¹ and the kcat/Km stood at 24.3 ± 2.84 M⁻¹ s⁻¹. Also, the “stoichiometry N” value in series [4] stood at 2. For the same molecule, in the series “purified protein [5]”, the Km is 11.8 ± 1.4 mM, the kcat is 0.043 ± 0.007 s⁻¹ and the kcat/Km was 3.64 ± 0.73 M⁻¹ s⁻¹. Moreover, in the series “purified protein [6]”, the Km was determined as 75.8 ± 15.0 mM, the kcat worked out at 0.035 ± 0.004 s⁻¹ and the kcat/Km is 0.46 ± 0.11 M⁻¹ s⁻¹.
